The source of these data is the DeepSol protein solubility set.

The series is described as follows: soluble on expression in E. coli; label from the status in PepcDB or PDB records.
Take “MSLDGGTLGATNRFLTRDGSPWIPIAGEMHYSRIAAERWDTELAKMAAAGIDVVSTYVFWNHHEEREGEWDFSGNRNVRRFVELCARHGLHVIVRLGPFCHGEVRNGGLPDWLYGKSYEVRSLDAGFLDAVRGLYAHIAQQLRGLYFKDGGPIIAAQVDNEYMASSAPWEMTTGISREWVPSGHDGAGYLERLRDIAIEEGIDPPMFTCTGWQSPVPDDMLPLWGGYAYRPWLFYDGVGAEGMTEHPATDEYRYRRLHGSSTSDGFDPPYDPDSRPYACCEMGGGMFNSYDYRFVLPKRSVDAMANIKLGSGCDFLGYYMFHGGTNPKGAAGFLNEGQTPKRSYDFQAPLGKFGQVRESYRRLRTLHEFVKAFGPELAGMPVSLQDGQDRIDPSDSETLRYAVRSDGERGFVSIDNFQDHARVPSRHGEQIDVTTGTGERIRFTGIGLAEGENCILPFNMDLDGVRLVRANLQPVTVLRVPGRPFRTFVFLKPDGMDELTFHFEGDIQDVTVGKADFERFMVRDAAEIVCVTRALAGRMTVLDGGLAFVDDDNALLYEDGDGWTLESPRAENGIAAYPEGLLGSPRPVEPVSVYARMRRLHADRYEIALPAGMGRLFRDQRQVADVMLNIAYQGDIGWLFCGDVLIADNFCNGETWQVGLRDYADAIDAAGGKLTLVVTPLRRGVRVKVTSSMAARLEQSDACVADVTDVYATPVYHMPVGEGHHHHHH”: the “soluble on expression in E. coli” value is on record as “not soluble”.
Consider “SHMTPDIILQRTGIDVRAVEQGDDAWHKLRLGVITASEVHNVIAKPRSGKKWPDMKMSYFHTLLAEVCTGVAPEVNAKALAWGKQYENDARTLFEFTSGVNVTESPIIYRDESMRTACSPDGLCSDGNGLELKCPFTSRDFMKFRLGGFEAIKSAYMAQVQYSMWVTRKNAWYFANYDPRMKREGLHYVVIERDEKYMASFDEIVPEFIEKMDEALAEIGFVFGEQWR”, for which the “soluble on expression in E. coli” value was “soluble”.
Then “KGDDNYYIIFTSGTTGQPKGVQISHDNLLSFTNWMIEDAAFDVPKQPQMLAQPPYSFDLSVMYWAPTLALGGTLFALPKELVADFKQLFTTIAQLPVGIWTSTPSFADMAMLSDDFCQAKMPALTHFYFDGEELTVSTARKLFERFPSAKIINAYGPTEATVALSAIEITREMVDNYT”, with “not soluble”; and “QGHVGDHDSHEVMQRLDALLPTLRERAQETEDLRRIPDDSMKALQETGFFRLLQPEQWGGYQADPVLFYSAVRKIASACGSTGWVSSIIGVHNWHLALFSQQAQEDVWGNDTDVRISSSYAPMGAGQVVDGGYTVNGAWAWSSGCDHASWAVLGGPVIKDGRPVDFVSFLIPREDYRIDDVWNVVGLRGTGSNTVVVEDVFVPTHRVLSFKAMSNLTAPGLERNTAPVYKMPWGTIHPTTISAPIVGMAYGAYDAHVEHQGKRVRAAFAGEKAKDDPFAKVRIAEASSDIDAAWRQLSGNVADEYALLVAGEEVPFELRLRARRDQVRATGRAISSIDKLFESSGATALANGTPLQRFWRDAHAGRVHAANDPERAYVMYGTGEFGLPITDTMV”, with “soluble”; and “MAHHHHHHMATSLSDVNHIILVLSGKGGVGKSTVACQLALALANVHGKKVGLLDVDICGPSVPTICGVTGKDVYRGDAGWEPVSLFHEQHEADTAASATGNVKIMSIAFLLPSENDAVVWRGPKKDAMIRQFVTDVHWGALDYLIIDTPPGTSDEHLTLCEVLKPFNTAGAVIVTTPQDVATDDVKKELSLCHKLELRCLGVVENMSGFVCPHCAHCTDIFSKGGGKKLAEMYEVEFLGAIPIDPTLSLAEDKGQCFVTTATDANSPTVRKTVAAVTGVIDAILKQVEKSAQLQQRH”, with “soluble”.
Then “MTTIFKLLRLPKNTIFQVLRQFKCLDLIAFSVCSKYAKSCVMYSTTSNKQKTIRIEFDDTIQFDLSPITKHICLFELLADQRNVLRKNFNECEMIINGNNFIRTEWSIAGFAIKDWMKHFLDIFGGPKIDIISFSGKGFNRTWFPRDLFRIFNAQSFYCVIDFILKILRSFQYPESLTTCKGKSLGRKPLNTIFILNFKSVKYYGRHQFQLTLNQLLAMNISTLKLLDSAISSKNLNFFLKHWLNGSNKRLEVLEIFGLNAYSPTIIFKNVAYQVILEDEIFSIYNEVFTFGYEIERSCDETRAAIFINSMPEVSHYCFRMIVGEVPNYLIIY”, with “not soluble”; and “MAKYIEIANTLRTSISNHEYKNNDPFPDQQALSKKFSTSRMTIQKALNILKTEGLIYSKQGSGTFVSSNADLIEQTDLEINQYIGTTDLFGKTHKINSKIIKFTIRYPDKSEQNALRISKKDLIYDITRLRIVDEEPYVLEYTKMPVKVIPGISDDILKKSIYHYIKSDLNLKIGSAFRKIRADKPNLFDKKFLNCKNEDPILEITQTAFLNSDIPFEFSRVRYRYDKGNMVVFVKSSFER”, with “not soluble”.
